1 molecule from article PMC3088709, “Phosphorylation of the Yeast γ-Tubulin Tub4 Regulates Microtubule Function” (PLoS ONE, 2011) can be followed below.

In this test the target is T1, Spc97-3HA (S. cerevisiae, UniProt P38863 1-823).
T1 construct: Spc97, budding yeast; tagged with 3HA in the TUB4-AID strain; source: S. cerevisiae (TUB4-AID SPC97-3HA strain), in lysate
T1 sequence (looked up): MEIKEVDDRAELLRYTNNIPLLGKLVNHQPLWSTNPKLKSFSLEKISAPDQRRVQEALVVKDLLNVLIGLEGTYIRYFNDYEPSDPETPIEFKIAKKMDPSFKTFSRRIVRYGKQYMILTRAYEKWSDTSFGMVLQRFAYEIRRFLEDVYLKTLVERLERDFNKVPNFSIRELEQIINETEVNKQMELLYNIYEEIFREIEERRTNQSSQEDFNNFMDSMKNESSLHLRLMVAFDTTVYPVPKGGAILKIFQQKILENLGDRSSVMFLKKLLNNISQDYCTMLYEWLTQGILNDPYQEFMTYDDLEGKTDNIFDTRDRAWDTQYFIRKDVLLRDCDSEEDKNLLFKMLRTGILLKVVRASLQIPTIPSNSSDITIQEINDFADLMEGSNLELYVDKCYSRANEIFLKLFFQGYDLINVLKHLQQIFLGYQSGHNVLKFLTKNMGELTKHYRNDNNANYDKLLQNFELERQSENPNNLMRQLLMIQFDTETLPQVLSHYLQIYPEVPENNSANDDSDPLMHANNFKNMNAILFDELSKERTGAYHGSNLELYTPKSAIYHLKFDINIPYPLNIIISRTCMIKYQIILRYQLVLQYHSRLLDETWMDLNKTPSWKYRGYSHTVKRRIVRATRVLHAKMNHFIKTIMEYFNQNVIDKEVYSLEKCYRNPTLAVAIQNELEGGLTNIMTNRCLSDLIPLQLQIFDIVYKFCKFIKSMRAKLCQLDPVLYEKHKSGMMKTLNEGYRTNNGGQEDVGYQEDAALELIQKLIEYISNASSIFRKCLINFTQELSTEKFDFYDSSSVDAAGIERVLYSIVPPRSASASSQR
Put plainly: co-IP; anti-HA immunoprecipitation of Spc97-3HA from lysates of TUB4-AID SPC97-3HA cells carrying pRS305 with TUB4, tub4-S74E, tub4-S100E or tub4-S360D, after 2 h of 0.5 mM IAA at 30°C to deplete Tub4-AID; blots with anti-Tub4, anti-Spc98, anti-Spc110 and anti-HA, normalised to precipitated Spc97-3HA. As to conditions: partners not purified.

B1: Tub4-S74E (natural protein, S. cerevisiae, UniProt P53378 1-473, looked up)
chain: MGGEIITLQAGQCGNHVGKFLWSQLAKEHAIGTDGLSQLPDSSTERDDDTKPFFRENSRNKFTPRAIMMDSEPEVIADVENTFRGFFDPRNTWVASDGASAGNSWANGYDIGTRNQDDILNKIDKEIDSTDNFEGFQLLHSVAGGTGSGLGSNLLEALCDRYPKKILTTYSVFPARSSEVVVQSYNTILALRRLIEDSDATVVFDNASLLNISGKVFRNPNIDLQHTNQLISTIISSVTNSIRFPSYMYSSMSSIYSTLIPSPELHFLSPSFTPFTSDYIHDDIAHKGHSSYDVMLDLLDPSNSLVSTAMNNPTYFNVYNTIIGNVEPRQISRAMTKLQQRIKFPSWSSSAMHVNIGRRSPYLPLQPNENEVSGMMLSNMSTVVNVFENACNTFDKVFAKGAFLNNYNVGDLFQSMQNVQDEFAESREVVQSLMEDYVAAEQDSYLDDVLVDDENMVGELEEDLDADGDHKLV
notes: Tub4, gamma-tubulin of budding yeast, phospho-mimicking mutant; source: S. cerevisiae, from integrated pRS305-tub4-S74E, in lysate
Regarding B1, the “amount in complexes with Spc97-3HA relative to WT Tub4” value is ~75 % of WT Tub4.
